Experiments:
GST-Smad2 full length = GST-Smad2 full length (UniProt Q15796 Q15796:1-467); assay: EMSA; details: tags: GST, E. coli; label: 33P
Smad2 = Smad2 (Homo sapiens, UniProt Q15796 Q15796:1-467); assay: EMSA; details: label: 33P
GST-Smad1 full length = GST-Smad1 full length (UniProt Q15797 Q15797:1-465); assay: EMSA; details: tags: GST, E. coli; label: 33P
Smad3 = Smad3 (Homo sapiens, UniProt P84022 P84022:1-425); assay: EMSA; not fused to GST; details: label: 33P
GST-Smad4 full length = GST-Smad4 full length (UniProt Q13485 Q13485:1-552); assay: EMSA; direct and specific; details: tags: GST, E. coli; label: 33P
GST-Smad4 full length, sequence (Q13485 whole entry, one chain of several): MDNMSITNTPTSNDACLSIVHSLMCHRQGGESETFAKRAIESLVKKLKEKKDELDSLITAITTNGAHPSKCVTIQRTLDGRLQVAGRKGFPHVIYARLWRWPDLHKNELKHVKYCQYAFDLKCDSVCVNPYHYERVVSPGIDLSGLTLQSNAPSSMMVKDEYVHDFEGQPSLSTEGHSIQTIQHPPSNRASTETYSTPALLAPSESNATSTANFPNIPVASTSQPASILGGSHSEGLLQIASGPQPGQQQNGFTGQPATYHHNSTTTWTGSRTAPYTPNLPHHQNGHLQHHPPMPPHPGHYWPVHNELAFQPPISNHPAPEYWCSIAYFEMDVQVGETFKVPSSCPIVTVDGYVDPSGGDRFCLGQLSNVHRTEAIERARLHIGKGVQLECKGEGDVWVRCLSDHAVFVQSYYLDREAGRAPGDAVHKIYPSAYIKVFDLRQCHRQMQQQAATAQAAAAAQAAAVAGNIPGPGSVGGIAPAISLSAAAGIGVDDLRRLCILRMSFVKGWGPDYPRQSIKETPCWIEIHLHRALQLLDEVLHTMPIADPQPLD

Smad3, sequence (P84022 whole entry, the tested form may be a part, one chain of several): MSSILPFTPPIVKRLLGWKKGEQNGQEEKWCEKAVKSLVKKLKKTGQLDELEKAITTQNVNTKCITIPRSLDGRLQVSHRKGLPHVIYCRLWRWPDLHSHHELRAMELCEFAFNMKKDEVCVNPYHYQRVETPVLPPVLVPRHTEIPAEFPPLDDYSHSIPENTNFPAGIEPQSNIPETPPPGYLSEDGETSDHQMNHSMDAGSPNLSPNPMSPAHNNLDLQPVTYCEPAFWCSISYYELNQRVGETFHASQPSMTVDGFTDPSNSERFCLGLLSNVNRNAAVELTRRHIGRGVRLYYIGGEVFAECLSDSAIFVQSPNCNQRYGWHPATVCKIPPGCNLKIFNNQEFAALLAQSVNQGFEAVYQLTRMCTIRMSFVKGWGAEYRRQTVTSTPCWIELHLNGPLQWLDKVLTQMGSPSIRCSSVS
Smad2, sequence (Q15796 whole entry, one chain of several): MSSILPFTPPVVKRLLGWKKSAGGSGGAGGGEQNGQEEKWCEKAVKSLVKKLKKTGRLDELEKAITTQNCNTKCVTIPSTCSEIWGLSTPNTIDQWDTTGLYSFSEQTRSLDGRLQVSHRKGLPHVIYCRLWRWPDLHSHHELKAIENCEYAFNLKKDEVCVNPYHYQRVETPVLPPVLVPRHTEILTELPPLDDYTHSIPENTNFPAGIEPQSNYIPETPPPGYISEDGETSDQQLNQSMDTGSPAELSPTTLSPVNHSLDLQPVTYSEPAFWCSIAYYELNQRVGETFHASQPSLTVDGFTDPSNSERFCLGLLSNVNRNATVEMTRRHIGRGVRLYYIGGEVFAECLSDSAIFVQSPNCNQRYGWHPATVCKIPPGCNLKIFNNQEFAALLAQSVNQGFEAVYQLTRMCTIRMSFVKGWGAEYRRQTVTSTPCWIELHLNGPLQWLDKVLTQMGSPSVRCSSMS
GST-Smad2 full length, sequence (Q15796 whole entry, one chain of several): as above
GST-Smad1 full length, sequence (Q15797 whole entry, the tested form may be a part, one chain of several): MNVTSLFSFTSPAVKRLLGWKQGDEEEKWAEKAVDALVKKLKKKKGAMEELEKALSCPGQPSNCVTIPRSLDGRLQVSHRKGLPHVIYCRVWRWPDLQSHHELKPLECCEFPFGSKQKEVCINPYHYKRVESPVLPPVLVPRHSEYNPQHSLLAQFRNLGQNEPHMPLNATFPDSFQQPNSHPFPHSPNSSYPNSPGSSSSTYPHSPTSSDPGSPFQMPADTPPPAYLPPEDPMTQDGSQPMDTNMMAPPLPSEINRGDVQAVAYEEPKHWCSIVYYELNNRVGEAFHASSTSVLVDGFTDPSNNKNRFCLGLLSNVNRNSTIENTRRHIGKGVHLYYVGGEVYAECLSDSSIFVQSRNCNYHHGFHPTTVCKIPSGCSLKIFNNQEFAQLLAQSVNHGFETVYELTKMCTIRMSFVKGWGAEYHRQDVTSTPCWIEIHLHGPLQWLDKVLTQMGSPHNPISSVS

B1: CAGA probe (dsDNA)
DNA 1: TCGAGAGCCAGACAAGGAGCCAGACAAGGAGCCAGACAC
DNA 2: GTGTCTGGCTCCTTGTCTGGCTCCTTGTCTGGCTCTCGA
B1: no binding (GST-Smad2 full length); no binding (Smad2); no binding (GST-Smad1 full length). B1: binds (Smad3); binds (GST-Smad4 full length).

Source: patent US20030207263, “Method of screening therapeutic agents” (published 2003)
